Results published in patent US20260374864 (published 2026).

Target: human CD22, His-tagged recombinant (human, UniProt P20273)
Assay: SPR

Sequence of human CD22, His-tagged recombinant (P20273 20-687): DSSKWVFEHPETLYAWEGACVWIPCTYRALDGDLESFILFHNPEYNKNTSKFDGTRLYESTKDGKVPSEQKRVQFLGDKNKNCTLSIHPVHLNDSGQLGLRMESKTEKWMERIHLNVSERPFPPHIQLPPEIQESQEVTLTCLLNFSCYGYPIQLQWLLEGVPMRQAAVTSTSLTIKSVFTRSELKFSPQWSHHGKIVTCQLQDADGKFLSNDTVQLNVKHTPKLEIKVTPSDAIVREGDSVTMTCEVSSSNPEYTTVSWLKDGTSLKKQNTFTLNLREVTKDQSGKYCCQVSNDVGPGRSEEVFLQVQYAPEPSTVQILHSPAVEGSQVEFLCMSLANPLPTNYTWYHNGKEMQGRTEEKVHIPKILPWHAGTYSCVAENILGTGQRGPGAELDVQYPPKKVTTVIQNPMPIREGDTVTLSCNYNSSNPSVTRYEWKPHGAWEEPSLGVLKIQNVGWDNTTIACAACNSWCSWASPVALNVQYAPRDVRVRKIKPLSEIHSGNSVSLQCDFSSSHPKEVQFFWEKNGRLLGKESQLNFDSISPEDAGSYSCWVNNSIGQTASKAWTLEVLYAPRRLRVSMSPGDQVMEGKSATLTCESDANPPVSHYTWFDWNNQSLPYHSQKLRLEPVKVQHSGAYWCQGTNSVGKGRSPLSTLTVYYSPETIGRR

Binder	Kd [nM]
CD22-mAb-2 (antibody, V domains shown) VH: QVTLRESGPALVKPTQTLTLTCTFSGISLTTSGMCVSWIRQPPGKALEWLALIDWDGDNYYSTSLKTRLTISKDTSKNQVVLTMASMDPVDTATYYCARMGYTYGYDAFDIWGQGTMVTVSS VL: EIVLTQSPEFQSVTPTEKVTITCRASQSIGSLLHWYQQKPDQSPKLLIKFASQSLSGVPSRFSGSGSGTDFTLTINSLEAEDAATYYCHQSRSLPFTFGPGTKVDIN	0.358
CD22-mAb-4 (antibody, V domains shown) VH: QVQLVESGGGVVQPGRSLRLSCAASGFTFSSYGMHWVRQAPGKGLEWVAIIYYDGSKKYYADSVKGRFTISRDNSKNTLYLQMNSLRAEDTAVYYCARELTGDAFDIWGQGTKVTVSS VL: EIVLTQSPDFQSVTPKEKVTITCRASQSIGSSLHWYQQKPDQSPKLLIKYASQSFSGVPSKFIGSGSGTDFTLTINSLEAEDAATFYCHQSSTLPYTFGQGTKLEIK	2.59
CD22-mAb-1 (antibody, V domains shown) VH: QVQLVQSGAEVKKPGASVKVSCKASGYTFTGYYIHWVRQAPGQGLEWMGWINPNSGGTNYAQKFQGRVTMTRDTSIGTAYMELSRLRSDDTAIYYCTREDTWNYIDYWGQGTLVTVSS VL: DIQMTQSPSSLSASVGDRVTITCRASQSISSHLNWYQQKPGKAPKLLIYAASSLHSGVPSRFSGSGSGTDFTLTISSLQPEDFATYCCQQSYSTPRTFGQGTKVEIK	0.0377
CD22-mAb-3 (antibody, V domains shown) VH: QVTLRESGPALVKTTQTLTLTCTFSGFSLSTSGMCVSWIRQPPGKALEWLALIDWDDDKYYSTSLKTRLTISKDTSKSQVVLTMTSMDPVDTATYYCARIRYIYGYDYFDYWGQGTLVTVSS VL: DIQMTQSPSSLSASVGDRVTITCRASQRISSQLNWYQQKPGKAPKLLIYAASSLQSGVPSRFSGSGSGTEFTLTISSLQPEDIATYCCQQTYSKPITFGQGTRLEIK	1.7
